Biological target: the molecule itself
Assay: SEC; Superdex 200 HR 10/30, running buffer with 0.02 % Triton X-100, pH 7.0, 50 mM sodium phosphate, 0.10 M NaCl, 4 °C, 0.15 mL/min; column calibrated with protein standards; dimer peak run again after 5 days at 4 °C; fractions analysed by SDS-PAGE; (αβ)2 dimer to (αβ) monomers

B1: Hydrogenase-1 from E. coli, (αβ) heterodimer of large and small subunit (complex)
chain 1: MSTQYETQGYTINNAGRRLVVDPITRIEGHMRCEVNINDQNVITNAVSCGTMFRGLEIILQGRDPRDAWAFVERICGVCTGVHALASVYAIEDAIGIKVPDNANIIRNIMLATLWCHDHLVHFYQLAGMDWIDVLDALKADPRKTSELAQSLSSWPKSSPGYFFDVQNRLKKFVEGGQLGIFRNGYWGHPQYKLPPEANLMGFAHYLEALDFQREIVKIHAVFGGKNPHPNWIVGGMPCAINIDESGAVGAVNMERLNLVQSIITRTADFINNVMIPDALAIGQFNKPWSEIGTGLSDKCVLSYGAFPDIANDFGEKSLLMPGGAVINGDFNNVLPVDLVDPQQVQEFVDHAWYRYPNDQVGRHPFDGITDPWYNPGDVKGSDTNIQQLNEQERYSWIKAPRWRGNAMEVGPLARTLIAYHKGDAATVESVDRMMSALNLPLSGIQSTLGRILCRAHEAQWAAGKLQYFFDKLMTNLKNGNLATASTEKWEPATWPTECRGVGFTEAPRGALGHWAAIRDGKIDLYQCVVPTTWNASPRDPKGQIGAYEAALMNTKMAIPEQPLEILRTLHSFDPCLACSTH
chain 2: LENKPRIPVVWIHGLECTCCTESFIRSAHPLAKDVILSLISLDYDDTLMAAAGTQAEEVFEDIITQYNGKYILAVEGNPPLGEQGMFCISSGRPFIEKLKRAAAGASAIIAWGTCASWGCVQAARPNPTQATPIDKVITDKPIIKVPGCPPIPDVMSAIITYMVTFDRLPDVDRMGRPLMFYGQRIHDKCYRRAHFDAGEFVQSWDDDAARKGYCLYKMGCKGPTTYNACSSTRWNDGVSFPIQSGHGCLGCAENGFWDRGSFYSRVVDIPQMGTHSTADTVGLTALGVVAAAVGVHAVASAVDQRRRHNQQPTETEHQPGNEDKQA
notes: large (α) subunit of E. coli Hydrogenase-1, holds the [NiFe] active site; printed mass 64.6 kDa; small (β) subunit of E. coli Hydrogenase-1, holds the FeS clusters; printed mass 36.8 kDa; Purified by Ni-NTA, so one subunit should carry a His tag; Cytochrome b subunits are said to be normally lost during homogenisation; Two copies of this heterodimer form the (αβ)2 dimer; also called Hyd-1; Hyd-1 …
stoichiometry N: 2
